The assay has as its target T1, Aβ 1-42 peptide (human, UniProt P05067 672-713).
T1 construct: domain: Aβ 1-42; also called Aβ42
The assay can be described thus: competitive ELISA on Aβ1-42; labelled antibody biotinylated murine 12B4.

Consider two molecules from patent US20040082762A1 (Janssen / Centocor, published 2004).

T1 sequence (P05067 672-713 limits assumed): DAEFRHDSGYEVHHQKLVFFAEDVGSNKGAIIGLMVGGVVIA

B1: chimeric 12B4 (antibody, V domains shown)
VH: QVTLKESGPGILQPSQTLSLTCSFSGFSLSTNGMGVSWIRQPSGKGLEWLAHIYWDEDKRYNPSLKSRLTISKDTSNNQVFLKITNVDTADTATYYCARRRIIYDVEDYFDYWGQGTTLTVSS
VL: DVLMTQTPLSLPVSLGDQASISCRSSQNIVHSNGNTYLEWYLQKPGQSPKLLIYKVSNRFSGVPDRFSGSGSGTDFTLKISRVEAEDLGVYYCFQGSHVPLTFGAGTKLELK
notes: Murine 12B4 variable regions joined to human gamma 1 and C kappa constant regions (vectors pCMV-hγ1 and pCMV-hκ1), expressed in COS cells; also called chimeric 12B4 antibody
Turning to B1, the binding result was “binds”.

B2: murine 12B4 (antibody, V domains shown)
VH: QVTLKESGPGILQPSQTLSLTCSFSGFSLSTNGMGVSWIRQPSGKGLEWLAHIYWDEDKRYNPSLKSRLTISKDTSNNQVFLKITNVDTADTATYYCARRRIIYDVEDYFDYWGQGTTLTVSS
VL: DVLMTQTPLSLPVSLGDQASISCRSSQNIVHSNGNTYLEWYLQKPGQSPKLLIYKVSNRFSGVPDRFSGSGSGTDFTLKISRVEAEDLGVYYCFQGSHVPLTFGAGTKLELK
notes: Mouse monoclonal antibody of the IgG2a isotype; also called mAb 12B4; mouse 12B4
On to B2, for which the binding result is “binds”.
